Experiment: soluble on expression in E. coli; label from the status in PepcDB or PDB records

Soluble on expression in E. coli, soluble:
MELLCPAGNLPALKAAIENGADAVYIGLKDDTNARHFAGLNFTEKKLQEAVSFVHQHRRKLHIAINTFAHPDGYARWQRAVDMAAQLGADALILADLAMLEYAAERYPHIERHVSVQASATNEEAINFYHRHFDVARVVLPRVLSIHQVKQLARVTPVPLEVFAFGSLCIMSEGRCYLSSYLTGESPNTIGACSPARFVRWQQTPQGLESRLNEVLIDRYQDGENAGYPTLCKGRYLVDGERYHALEEPTSLNTLELLPELMAANIASVKIEGRQRSPAYVSQVAKVWRQAIDRCKADPQNFVPQSAWMETLGSMSEGTQTTLGAYHRKWQ
MTTQIELGDITVDVVLKDIKNIHLSVYPPNGRVKISAPLRMDIDTIRVFAISRLGWIKQQRKKFQEQERETPREYLDLESHYVWGKRYLLKVIEVNEAPSVELKHSKMILRVRPGTDDKKRQSIIDAWYREQLKKAIPPLIARWEPLLGVKVERFFVQRMRTKWGSCNHKARNIRLNTELAKKPEECLEYTIVHEMAHILEPTHNSHFITLMDQFMPKWQFCRDRLNQLPVRHEDWIYLEHHHHHH
NFDTNMFKLENYVKEKYSLESLEIIPNEFDDTPTILSERISQVAAGVLRNLIDDNMKIGFSWGKSLSNLVDLIHSKSVRNVHFYPLAGGPSHIHAKYHVNTLIYEMSRKFHGECTFMNATIVQENKLLADGILQSRYFENLKNSWKDLDIAVVGIGDFSNKGKHQWLDMLTEDDFKELTKVKTVGEICCRFFDSKGKEVYENLQERTIAISLEDLKNIPQSLAVAYGDTKVSSILSVLRANLVNHLITDKNTILKVLEEDGDL
VRAPVTKVHGGAGSAQRMPLCDKCGSGIVGAVVKARDKYRHPECFVCADCNLNLKQKGYFFVEGELYCETHARART
MKPKSGAVRRLEKNTMNFVLSDVADAEAEKAIRDPLVAYNLARFGESDKRDLNITIRNDDNSVTGGLVGHTARGWLYVQLLFVPEAMRGQGIAPKLLAMAEEEARKRGCMGAYIDTMNPDALRTYERYGFTKIGSLGPLSSGQSITWLEKRF

Soluble on expression in E. coli, not soluble:
MISIVIPLYNQVAYTQLCVQSLRRAGLNGVDVLLIDNGSTDGTAEYLKSCSDLRVIRNRENLGCAGAWNQGVRETTSEWVMILNNDVVVSPGWLDGLLEAAGKEGLDVVSPAIREGEYNYDIEGYSQEFVGRMGDVVRRGVADGICFMVRRRVFEVVGLFDENFRIGQFEDADFFRRARNAGFRLGTTGRSFIHHFGSVTQDAIRKNRPERPYVAENRAYFREKWQLTRGRRLIERWRRKLREFAWQKCERMFHGHTLKEKWLGGRLRYYLEHHHHHH
MKVGVFTVLYQQLPLEDMLDKVAAMGIEAVELGTGNYPGNAHCDPDALLDQPEKIKALKKAVADRGLVISALSCHGNPLHPDKTFAKQSHDTWRKTVRLAEQLEVPVINAFSGCPGDHPGAKYPNWVTCSWPPDYLEILKWQWEEVVIPYWREEAAFAKEHGITQIAFEMHPGFVVYNPETLLKLREHVGEAIGANFDPSHLLWQGIDPVEAIKLLGREKAIFHVHAKDTYLDEANIRKNGVLDTKHYSQILDRSWVFRTVGYGQSEKMWRDIVSALRAVGYDYVLSIEHEDMLASIDEGLSKAVALLKKVLFKEELPEMWWA
MSRRSQWKQVANGMLGDVSKARSVEERENVPEKACGFCKNFSENAYASDGRGYCKKLKVGSDIKVNPPVYVMEGQASLTVLFNSDGAGCEYFNRQDLIDTDGNEVNDPSYRRVQRQMEKAIK
MFSAVHPDSRRDCKKYRYSQTSHQNYWFLKYSEFNLLGKRKIKGNFLHLFHAEEKVLFQSVMLKDQTAKTEKRTQEITCQLSKLANFEENNRKKLQDTERENKKLRNLINSLELKLVSSPENLPLQILFFLISENDELLERVFHFHCATFTKLSDFQLLFFPTPMYVANEYAKSGRNLWNEAIIADAIPEVSGPEAARMKQITDSIKYKESGFLIDRRVNASALIIQSNCSIFNSNF
METKFYNHQGGHLILYFAGWGTPPDAVNHLILPENHDLLICYDYQDLNLDFDFSAYRHIRLVAWSMGVWAAERALQGIRLKSATAVNGTGLPCDDNFGIPCTVFKGTLENLTENTRLKFERRMCGDKASFEDYQQFPARPFGEIHQELIALFAMIGQDRRTDLIRWTNALVGSGDKIFMPANQHRYWTPRCTVREIDVGHYLFSRFTHWSALWNH
MTFELKYTDRSYLPDQFKAISGNPPVEWKVTNNLVEYPEALRYMQERVENILAQNAHEQVWLLEHPSLYTAGTSAKKKDLLTPHLFPVYEAGRGGEFTYHGPGQRIAYIMLDLKRRRQDIRAFISALEEWIIQMLAKFNIKGERREDRVGVWVQRHSCQSTQNSLYSEDKIAAIGIRVRKWVSFHGVSINVDPNLAHYSGIVPCGITNHGVTSFLDLGLPTKMHDIDIALKQSFEQIFGPIIDIS
MLETDLEARMQILRESGFQESQGDDDTFAQRAEWFYQGRPLLLSLCLDLYNGYVTLLGRSSHQTRLKPTTSLPNQLLQDDDDCISDIDSVSEVSSEVESTLSFQQMKDPTAVSEKVDELVSQLVTASLDKEILKHELLHKDQQFHEASKTIELLKKFVMLLEMEKEVAVEENANLGYKLTSLLEENRELATEALFMKNEAVGLARCVLKMRDDHFHKVCILQNRIYSLQASRNSEPVSDKVSYGCFGLDKHKTKKKKENKTEEKKPGFKWLKKLNTINLFTKCSLNPSAAAPSCCTFDLPY
MWKTYTRYQAVYKKAQWPLTLYFDGECPLCAREIKVLRARAAADRLLFVDISDDAFDASLLGLTLPQMESSLHARFDDGTWVTGLDATLWSWRAAGLGKWVAPLSWPILRPLFTVLYRLFCRFRPHLAWLPHPDGGRRCSKGSCTVAESVVMKSEASAEKKIS
NLMYYGTFIIDNPVKKGAEKFIAQCREISVPVFVATGDTTKAAENIAKVLCPANAGKIVTLRADQIDEKGIEFLNEENYPSDSTVIFSGINEAILNRFQKLMGREGAKRPVVIFAEMSTEGKGVLARYLKDHHYFVVANGDGTNDVMMMKNSNVVIAHHSDDGTFAPGVDGLTN
RDLKSEVKKRNIQLQFDYPEILSKILLYSNAGLSIKSSIERIVRQYEDEKKKNPKEYHYAYEELKMATVKMKSGVSEINAINQYGERCGLHNYIKLANIIEQNIRRGTGELSFALENELNRALVERKNTALKRGSEISTK
MGSDKIHHHHHHMKWCSSMSDPKPCIICVAITGSVPTKAANPAVPITVAEQIESTHAAFEAGAAICHAHVRNDDETPSSDPEKFARLKEGVEGHCPGMIVQLSTGGRSGASKERGGMLPLRPDMASLSVGSNNFPTRVYENPPDLVDWLAAEMRTYDIKPEIEAFDLSHIHHAALMHQRGQLAGHPYVQFVMGVKNAMPADRETFDFYVATMTRLLPESEWCAAGIGPNQIVLNEWAIAAGGHARTGLEDNVRWDKQTLAPSNAALVERTAEICEKNGRPVATTAQAREILGLRT
MSLVYLNSNFLYGDDFEPKKGTLVIEDEIIKGFTSEHHSNVLNYKGLVIPPLINSHTHIGDNSIKDIGIGKSLDELVKPPNGLKHKFLNTCSEKELVQGMSEGLYDLENNGIKAFCDFRENGLNGINSLKSAFEDSNVSIKPIILGRPTQREENLLKDEISIILDNCDGLGLSGSNEYSDQELKFICKLVNKKILSIHANEHKGSVQYSKEKYGISEIERLINLNIKPDFLIHATHSSSDDLSLLNENKIPVVVCPRANASFNVGLPDIPKMLEYNLKLGIGTDNFMANSPSIFKEMDFIYKIYHVDPKEILKMATINGAEILGLQNTGVIKEGYIPTFTFIKNGNILKTSKNIAASVVTRLENGDVDSKFLVCEGHHHHHH
MQQLREGAPADVFISADKKNMDKALADGTVGSSVKVATNSMVMVVPQGNPGKVTSVSDLAGKTVVLCDVQVPCGTISKKLQDANGVEIKAASLESSVSDVLGKVVSGEADAGWVYRTDAAAAGNKVEVIDIPHAQEFENSLYAAVSTHSTSPDEAQKLLDLIVSPKMAQVWKDHGFSPAQ
